Laboratory results: US20220143214A1
Like-named read-outs stand apart in the source and are kept apart here.

Assays:
[1] = biological target: LY6A (Ly6a, C57BL/6J mouse) (mouse (C57BL/6J)) (UniProt P05533); test: qPCR of viral genomes bound to Ly6a-transfected HEK293T cells
[2] = biological target: LY6C1 (Ly6c1, C57BL/6J mouse, splice variant 1) (mouse (C57BL/6J)) (UniProt P0CW02); test: AAV library bound to Ly6c1-transfected HEK293T cells, NGS
[3] = biological target: LY6A (Ly6a, C57BL/6J mouse) (mouse (C57BL/6J)) (UniProt P05533); test: AAV library bound to Ly6a-transfected HEK293T cells, NGS
[4] = biological target: LY6C1 (Ly6c1, C57BL/6J mouse, splice variant 1) (mouse (C57BL/6J)) (UniProt P0CW02); test: AAV library bound to Ly6c1-transfected HEK293T cells, NGS; remark: listed apart in the source
[5] = biological target: LY6A (Ly6a, C57BL/6J mouse) (mouse (C57BL/6J)) (UniProt P05533); test: AAV library bound to Ly6a-transfected HEK293T cells, NGS; remark: listed apart in the source
[6] = biological target: LY6A (Ly6a, C57BL/6J mouse) (mouse (C57BL/6J)) (UniProt P05533); test: cell-based or functional assay
[7] = biological target: LY6A (Ly6a, C57BL/6J mouse) (mouse (C57BL/6J)) (UniProt P05533); test: binding (qPCR) and transduction of cells with ectopic LY6A
[8] = biological target: LY6A (Ly6a, C57BL/6J mouse) (mouse (C57BL/6J)) (UniProt P05533); test: qPCR of viral genomes bound to BMVECs treated with Ly6a sgRNAs (CRISPR/SaCAS9)
[9] = biological target: LY6C1 (Ly6c1, C57BL/6J mouse, splice variant 1) (mouse (C57BL/6J)) (UniProt P0CW02); test: cell-based or functional assay

Sequence of UniProt P0CW02 (P0CW02 27-109 limits assumed, change not shown): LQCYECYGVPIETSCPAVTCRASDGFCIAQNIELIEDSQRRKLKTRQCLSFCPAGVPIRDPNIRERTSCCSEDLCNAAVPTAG
Sequence of UniProt P05533 (P05533 27-112 limits assumed): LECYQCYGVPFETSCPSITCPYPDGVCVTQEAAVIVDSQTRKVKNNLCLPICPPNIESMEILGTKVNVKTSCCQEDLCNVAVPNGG

Row | Substance | fold enrichment (log2) [4] | fold enrichment (log2) [5] | other results
1 | AAV-PHP.B2 | – | – | fold increase in binding on Ly6a expression [1]: > 50 fold
2 | AAV9 K449R 7-mer variant C5 (ELYKLPT) | – | – | fold enrichment (log2) [2]: 5.38 log2; fold enrichment (log2) [3]: -2.26 log2
3 | AAV9 K449R 7-mer variant TRNGYST | 5.58 log2 | 0.82 log2 | fold enrichment (log2) [2]: 4.05 log2; fold enrichment (log2) [3]: 0.186 log2
4 | AAV9 K449R 7-mer variant C3 (WGTPPRG) | – | – | fold enrichment (log2) [2]: 6.35 log2; fold enrichment (log2) [3]: 1.01 log2
5 | AAV-PHP.B | – | – | fold increase in binding on Ly6a expression [1]: > 50 fold
6 | AAV9 K449R 7-mer variant C1 (KSAGSIY) | – | – | fold enrichment (log2) [2]: 6.12 log2; fold enrichment (log2) [3]: 1.41 log2
7 | AAV-PHP.eB | – | – | transduction of HEK293T cells (Luciferase assay) [6]: 30 fold; transduction of hCMEC cells (firefly luciferase assay) (logs (base 10)) [6]: 2; fold increase in binding and transduction on LY6A expression [7]: > 30 fold; reduction in binding after Ly6a disruption [8]: 50%; fold increase in binding on Ly6a expression [1]: > 50 fold
8 | AAV-PHP.B3 | – | – | fold increase in binding on Ly6a expression [1]: > 50 fold
9 | AAV9 K449R 7-mer variant C28 (KSVGSVY) | – | – | transduction of hCMEC cells (firefly luciferase assay) (logs (base 10)) [9]: 2; fold enrichment (log2) [2]: 3.59 log2; fold enrichment (log2) [3]: -1.24 log2
10 | AAV9 K449R 7-mer variant LSKGLSS | 3.55 log2 | -3.55 log2 | –
11 | AAV9 K449R 7-mer variant RATGYSS | 4.75 log2 | 2.49 log2 | –
12 | AAV9 K449R 7-mer variant MMAKPFL | -0.49 log2 | 4.53 log2 | –
13 | AAV9 K449R 7-mer variant TRTGYST | 4.63 log2 | 0.89 log2 | –
14 | AAV9 K449R 7-mer variant LRGGYST | 2.88 log2 | -3.32 log2 | –
15 | AAV9 K449R 7-mer variant LTKWEST | 3.91 log2 | 0.82 log2 | –
16 | AAV9 K449R 7-mer variant IRQGYSS | 2.61 log2 | -1.28 log2 | –
17 | AAV9 K449R 7-mer variant NIIRPFA | 0.4 log2 | 3.23 log2 | –
18 | AAV9 K449R 7-mer variant TSMKPFL | -0.98 log2 | 3.49 log2 | –
19 | AAV9 K449R 7-mer variant YVGNPFK | 0.58 log2 | 4.53 log2 | –
20 | AAV9 K449R 7-mer variant IVRGLSS | 3.24 log2 | -1.14 log2 | –
21 | AAV9 K449R 7-mer variant NERRPFL | 0.77 log2 | 4.31 log2 | –
22 | AAV9 K449R 7-mer variant ALHVPFK | 0.26 log2 | 4.11 log2 | –
